Biological target: UB (ubiquitin)
Assay: SEC-MALS
Details: reference: unphosphorylated PARKIN; sites S65

PARKIN (from UniProt O60260) p-PARKIN
other: mass increase on p-UB addition: same; reference ~7

Reference: paper PMC4254048
